This note sets out measurements from patent publication US20220296726A1 (Bicycle, published 2022).

The target in assay [1] is T1, Human TREM2 extracellular domain (ECD), residues 19-131, C-terminally biotinylated, glycosylated (human, UniProt Q9NZC2 19-131, C-terminally biotinylated; glycosylated).
T1 construct: range 19-131; loaded on Superstreptavidin biosensors; also called Human BLI glycosylated
T1 sequence (looked up): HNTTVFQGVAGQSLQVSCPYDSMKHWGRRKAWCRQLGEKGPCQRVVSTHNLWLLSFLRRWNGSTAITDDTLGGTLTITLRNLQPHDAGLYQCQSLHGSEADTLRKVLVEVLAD
Nature of the assay: BLI steady state, glycosylated human TREM2 ECD on sensor. How it is done: (§1) Bio-layer interferometry was performed on an Octet RED384® system (Sartorius) at 25° C. in a buffer containing 50 mM HEPES (pH 7.5), 150 mM NaCl and 0.1% Tween. […] Reference wells containing no bicycle peptides and reference sensors loaded with an unrelated protein (His-tagged MLLT3a) were subjected to the same assay protocol and double reference subtraction was used for processing to account for non-specific binding. Traces were analysed using Octet Software (Version 11.0). Association and dissociation curves were globally fit and the response at equilibrium (Req) plotted against concentration to obtain steady-state KD values.

Assay [2] has as its target T2, Human TREM2 extracellular domain (ECD), residues 19-131, C-terminally biotinylated, deglycosylated (human, UniProt Q9NZC2 19-131, C-terminally biotinylated; deglycosylated).
T2 construct: range 19-131; loaded on Superstreptavidin biosensors; also called triggering receptor expressed on myeloid cells 2; Human BLI (deglycosylated)
T2 sequence (looked up): T1 sequence (looked up)
Put plainly: BLI steady state, deglycosylated human TREM2 ECD on sensor. The protocol: as §1

The target of assay [3] is T3, TREM2 on human iPSC macrophages (human, UniProt Q9NZC2 19-230).
T3 sequence (looked up): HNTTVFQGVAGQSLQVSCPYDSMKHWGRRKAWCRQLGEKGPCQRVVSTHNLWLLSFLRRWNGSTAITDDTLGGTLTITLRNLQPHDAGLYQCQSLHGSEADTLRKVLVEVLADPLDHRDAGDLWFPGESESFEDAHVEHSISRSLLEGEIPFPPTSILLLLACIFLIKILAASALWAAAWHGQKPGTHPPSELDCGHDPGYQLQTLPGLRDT
Put plainly: cell-based or functional assay.

Usually Kd stands for the equilibrium constant for the complex coming apart. A higher Kd goes with a looser complex.

*1 amine or outer side, *2 acyl side, *3 side chain or, on linkers, in order; H or OH if unused. Bridges are numbered along the chain shown (N, C = ends). Where no end group is shown, it is not given here. [ ]: non-standard residue; d: D form. The star is where a group is joined. TATA = O=C(CC[*:1])N1CN(C(=O)CC[*:2])CN(C(=O)CC[*:3])C1; 1Nal = N[C@@H](Cc1cccc2ccccc12)C(=O)O; 2Nal = N[C@@H](Cc1ccc2ccccc2c1)C(=O)O; hPhe = N[C@@H](CCc1ccccc1)C(=O)O; NMeA = CN[C@@H](C)C(=O)O; Pent4ynoyl = C#CCCC(=O)* Some results are limits rather than exact numbers.

Regarding CSEYCFWPXYHC (N-terminal acetyl (Ac); CiSEYCiiFWP[2Nal]YHCiii; Ci, Cii, Ciii on TATA scaffold) [BCY20076], binding in assay [1] was characterised by a dissociation constant (Kd) of 1.29 µM.
Molecule CSEYCFWPFXHC (N-terminal acetyl (Ac); CiSEYCiiFWPF[1Nal]HCiii; Ci, Cii, Ciii on TATA scaffold) [BCY20081] returned a Kd in assay [2] of 1.06 µM.
On to Ac-CSEYCF[1Nal]P[hPhe]YHC (linker 1-5-12 via TATA) [BCY19672], for which, in assay [2], the Kd came to 2.8 µM. Further, the “pSYK (µM)” value in assay [3] was 8.5 µM.
The molecule CSEYCFWXFYHC (N-terminal acetyl (Ac); CiSEYCiiFW[Pip]FYHCiii; Ci, Cii, Ciii on TATA scaffold) [BCY20069] came in with a Kd in assay [2] of 1.46 µM.

B1: BCY19669 (peptide)
peptide: Ac-CSEYCF[1Nal]PFYHC-NH2
modifications: linker 1-5-12 via TATA
SMILES: CC(=O)N[C@H]1CSCCC(=O)N2CN3CN(C2)C(=O)CCSC[C@H](NC(=O)[C@H](Cc2ccc(O)cc2)NC(=O)[C@H](CCC(=O)O)NC(=O)[C@H](CO)NC1=O)C(=O)N[C@@H](Cc1ccccc1)C(=O)N[C@@H](Cc1cccc2ccccc12)C(=O)N1CCC[C@H]1C(=O)N[C@@H](Cc1ccccc1)C(=O)N[C@@H](Cc1ccc(O)cc1)C(=O)N[C@@H](Cc1c[nH]cn1)C(=O)N[C@H](C(N)=O)CSCCC3=O
On to B1, for which the Kd in assay [2] was found to be 2 µM. Moreover, the “pSYK (µM)” value in assay [3] worked out at 16.6 µM.
With Ac-CSEYCF[1Nal]PFYAC (linker 1-5-12 via TATA) [BCY19294], the Kd in assay [2] came to 1.5 µM. For the same molecule, the “pSYK (µM)” value in assay [3] was less than 3.4 µM.
As for Ac-CSEYCF[2Nal]PFYAC (linker 1-5-12 via TATA) [BCY19296], the Kd in assay [2] worked out at 2.7 µM. For the same molecule, the “pSYK (µM)” value in assay [3] is less than 3.4 µM.

B2: BCY20059 (peptide)
peptide: CSEYCFXPFYHC
modifications: N-terminal acetyl (Ac); CiSEYCiiF[Trp(Me)]PFYHCiii; Ci, Cii, Ciii on TATA scaffold
As for B2, the Kd is 1.81 µM in assay [2] and 1.5 µM in assay [1].

B3: BCY19671 (peptide)
peptide: CSEYCFXPFYHC
modifications: N-terminal acetyl (Ac); CiSEYCiiF[6ClTrp]PFYHCiii; Ci, Cii, Ciii on TATA scaffold
In assay [2], B3 had a Kd of 1 µM. For the same molecule, in assay [3], the “pSYK (µM)” value was determined as 154 µM.
CSEYCFWXFYHC (N-terminal acetyl (Ac); CiSEYCiiFW[Aze]FYHCiii; Ci, Cii, Ciii on TATA scaffold) [BCY20068] yielded a Kd in assay [2] of 2.54 µM. In other words, the single-digit micromolar range.
Molecule ACSYYCFWPFQYCA (linker 2-6-13 via TATA) [BCY19767] showed a Kd in assay [2] of 0.55 µM. Besides, the “pSYK (µM)” value in assay [3] is 8.6 µM.
On to ACSEYCFWPFQWCA (linker 2-6-13 via TATA) [BCY19771], for which the Kd in assay [2] amounted to 5.7 µM. In addition, the “pSYK (µM)” value in assay [3] turned out to be 9.9 µM.

B4: BCY19766 (peptide)
peptide: ACSYYCFWPFQSCA-NH2
modifications: linker 2-6-13 via TATA; N-terminus assumed
SMILES: C[C@H](N)C(=O)N[C@H]1CSCCC(=O)N2CN3CN(C2)C(=O)CCSC[C@H](NC(=O)[C@H](Cc2ccc(O)cc2)NC(=O)[C@H](Cc2ccc(O)cc2)NC(=O)[C@H](CO)NC1=O)C(=O)N[C@@H](Cc1ccccc1)C(=O)N[C@@H](Cc1c[nH]c2ccccc12)C(=O)N1CCC[C@H]1C(=O)N[C@@H](Cc1ccccc1)C(=O)N[C@@H](CCC(N)=O)C(=O)N[C@@H](CO)C(=O)N[C@H](C(=O)N[C@@H](C)C(N)=O)CSCCC3=O
In assay [2], B4 yielded a Kd of 1 µM. In addition, in assay [3], the “pSYK (µM)” value amounted to 35.2 µM.
As to ACSEYCFWPFQYCA (linker 2-6-13 via TATA) [BCY19784], the Kd in assay [2] was found to be 0.45 µM. Also, the “pSYK (µM)” value in assay [3] was found to be 1.8 µM.
CSEYCFWPXYHC (N-terminal acetyl (Ac); CiSEYCiiFWP[HPhe]YHCiii; Ci, Cii, Ciii on TATA scaffold) [BCY19667] displayed a Kd in assay [2] of 0.43 µM. Also, in assay [3], the “pSYK (µM)” value worked out at 7.4 µM.
For ACTNYCFWPFQSCA (linker 2-6-13 via TATA) [BCY19780], the Kd in assay [2] is 2.4 µM. Further, the “pSYK (µM)” value in assay [3] is 12.6 µM.
As for ACTNYCFWPFYSCA (linker 2-6-13 via TATA) [BCY19781], the Kd in assay [2] came out at 1.4 µM. In assay [3], the “pSYK (µM)” value is 34.1 µM.
In the case of ACTNYCFWPFQYCA (linker 2-6-13 via TATA) [BCY19779], the Kd in assay [2] came out at 0.92 µM. For the same molecule, in assay [3], the “pSYK (µM)” value stood at 2.5 µM.
For ACTNYCFWPFWSCA (linker 2-6-13 via TATA) [BCY19769], in that order: 0.92 µM and 0.2 µM.
Take ACTNYCFWPFYLCA (linker 2-6-13 via TATA) [BCY19782]: in assay [2], the Kd amounted to 1.4 µM. In addition, in assay [3], the “pSYK (µM)” value was determined as 3.8 µM.

B5: BCY20052 (peptide)
peptide: CSEYCXWPFYHC
modifications: N-terminal acetyl (Ac); CiSEYCii[3FPhe]WPFYHCiii; Ci, Cii, Ciii on TATA scaffold
As to B5, the Kd in assay [2] came out at 4.88 µM; in assay [1], 1.25 µM.
As to K(Pent4ynoyl)CSEYCFWPFYHC (linker 2-6-13 via TATA) [BCY20042], the values for the Kd in assay [2] and in assay [1] were 1.19 µM and 1.35 µM, respectively.
As for ACSNYCFWPFWQCA (linker 2-6-13 via TATA) [BCY19770], binding in assay [2] was put at a Kd of 1.8 µM. For the same molecule, the “pSYK (µM)” value in assay [3] turned out to be 4.5 µM.
In assay [2], ACSEYCFWPFWQCA (linker 2-6-13 via TATA) [BCY19778] gave a Kd of 3.6 µM. In addition, in assay [3], the “pSYK (µM)” value was 4.6 µM.
For ACSNYCFWPFFQCA (linker 2-6-13 via TATA) [BCY19772], binding in assay [2] was put at a Kd of 0.96 µM. In addition, the “pSYK (µM)” value in assay [3] was 13.9 µM.
As to ACSEYCFWPFFLCA (linker 2-6-13 via TATA) [BCY19776], in assay [2], the Kd is 0.75 µM. In addition, the “pSYK (µM)” value in assay [3] stood at 4.4 µM.

B6: BCY20080 (peptide)
peptide: CSEYCFWPFXHC
modifications: N-terminal acetyl (Ac); CiSEYCiiFWPF[3tBuTyr]HCiii; Ci, Cii, Ciii on TATA scaffold
Regarding B6, the Kd in assay [2] stood at 0.375 µM.
Consider Ac-CSEYCFW[NMeA]FYAC (linker 1-5-12 via TATA) [BCY19303], for which binding in assay [2] was characterised by a dissociation constant (Kd) of 2.3 µM. Moreover, the “pSYK (µM)” value in assay [3] is less than 3.4 µM.
In assay [1], Ac-CSEYCFWPFWHC (linker 1-5-12 via TATA) [BCY20077] displayed a Kd of 0.75 µM.
On to CSEYCXWPFYHC (N-terminal acetyl (Ac); CiSEYCii[1Nal]WPFYHCiii; Ci, Cii, Ciii on TATA scaffold) [BCY20054], for which the Kd in assay [2] was determined as 2.54 µM; in assay [1], 1.83 µM.

B7: BCY20067 (peptide)
peptide: CSEYCFWXFYHC
modifications: N-terminal acetyl (Ac); CiSEYCiiFW[Cis-HyP]FYHCiii; Ci, Cii, Ciii on TATA scaffold
In turn, B7 displayed a Kd in assay [2] of 23.6 µM.

B8: BCY19768 (peptide)
peptide: ACTSYCFWPFYQCA-NH2
modifications: linker 2-6-13 via TATA; N-terminus assumed
SMILES: C[C@H](N)C(=O)N[C@H]1CSCCC(=O)N2CN3CN(C2)C(=O)CCSC[C@H](NC(=O)[C@H](Cc2ccc(O)cc2)NC(=O)[C@H](CO)NC(=O)[C@H]([C@@H](C)O)NC1=O)C(=O)N[C@@H](Cc1ccccc1)C(=O)N[C@@H](Cc1c[nH]c2ccccc12)C(=O)N1CCC[C@H]1C(=O)N[C@@H](Cc1ccccc1)C(=O)N[C@@H](Cc1ccc(O)cc1)C(=O)N[C@@H](CCC(N)=O)C(=O)N[C@H](C(=O)N[C@@H](C)C(N)=O)CSCCC3=O
As to B8, the Kd in assay [2] worked out at 0.9 µM. Moreover, in assay [3], the “pSYK (µM)” value amounted to 7.8 µM.

B9: BCY20053 (peptide)
peptide: CSEYCXWPFYHC
modifications: N-terminal acetyl (Ac); CiSEYCii[4FPhe]WPFYHCiii; Ci, Cii, Ciii on TATA scaffold
In the case of B9, the Kd in assay [2] came to 2.01 µM; in assay [1] it was 1.71 µM.
Turning to Ac-CSEYCFWPFYAC (linker 1-5-12 via TATA) [BCY19293], the Kd in assay [2] amounted to 0.97 µM. Further, the “pSYK (µM)” value in assay [3] came out at 7.2 µM.

B10: BCY20072 (peptide)
peptide: CSEYCFWPXYHC
modifications: N-terminal acetyl (Ac); CiSEYCiiFWP[3MePhe]YHCiii; Ci, Cii, Ciii on TATA scaffold
For the molecule B10, the equilibrium dissociation constant (Kd) in assay [2] amounted to 1.67 µM.
CSEYCFWPXYHC (N-terminal acetyl (Ac); CiSEYCiiFWP[1Nal]YHCiii; Ci, Cii, Ciii on TATA scaffold) [BCY19668] yielded a Kd in assay [2] of 0.24 µM. Further, the “pSYK (µM)” value in assay [3] is 12.7 µM.
Take ACTNYCFWPFAVCA (linker 2-6-13 via TATA) [BCY19783]: in assay [2], the affinity, expressed as Kd, was 2.7 µM. The “pSYK (µM)” value in assay [3] amounted to 4.2 µM.
